Measured values as given in the supplement of paper PMC10065799, “High-throughput profiling of sequence recognition by tyrosine kinases and SH2 domains using bacterial peptide display” (eLife, 2023).

Columns and labels:
[1] = target: FGFR3 (UniProt P22607); experiment: phosphorylation enrichment, bacterial display (enrichment ratio); higher = better substrate or ligand; peptides without Tyr show the background
[2] = target: Fyn (UniProt P06241); experiment: as above
[3] = target: Fes (UniProt P07332); experiment: as above
[4] = tested on: c-Abl (mouse); experiment: as above
[5] = tested on: Fer (mouse); experiment: as above
[6] = target: Hck (UniProt P08631); experiment: as above
[7] = tested on: AncSZ; experiment: as above
[8] = target: MERTK (UniProt Q12866); experiment: as above
[9] = tested on: c-Src; experiment: as above
[10] = target: FGFR1 (UniProt P11362); experiment: as above
[11] = target: EPHB1 (UniProt P54762); experiment: as above
[12] = target: Jak2 (UniProt O60674); experiment: as above
[13] = target: EPHB2 (UniProt P29323); experiment: as above
[14] = target: SHP2-C SH2; experiment: SH2 binding enrichment of the phosphorylated peptide, bacterial display (enrichment ratio); higher = better substrate or ligand; peptides without Tyr show the background
[15] = target: c-Src SH2; experiment: as above
[16] = target: Grb2 SH2 (UniProt P62993); experiment: as above
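Wherever SH2 binding enrichment of the phosphorylated peptide, bacterial display is given: peptide library displayed on the E. coli surface as eCPX fusions, selected cells deep-sequenced, score is each peptide's frequency after selection divided by its frequency in the input.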
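Wherever phosphorylation enrichment, bacterial display is given: 11-residue human phosphosite peptides and single-mutation variants displayed on the E. coli surface, counted by deep sequencing, each peptide's frequency after selection divided by its frequency in the unselected input library; frequency after pTyr selection over input frequency; kinase dosed for 20-30% of maximal phosphorylation in three min.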

Sequence of Grb2 SH2 (P62993 whole entry, looked up, the tested form may be a part): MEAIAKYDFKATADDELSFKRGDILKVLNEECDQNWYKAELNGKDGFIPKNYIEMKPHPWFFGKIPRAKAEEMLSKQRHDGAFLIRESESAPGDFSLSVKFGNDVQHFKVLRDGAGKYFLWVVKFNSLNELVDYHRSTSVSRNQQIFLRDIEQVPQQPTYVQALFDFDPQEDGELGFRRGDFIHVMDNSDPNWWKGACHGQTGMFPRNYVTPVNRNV
Sequence of EPHB1 (P54762 whole entry, looked up): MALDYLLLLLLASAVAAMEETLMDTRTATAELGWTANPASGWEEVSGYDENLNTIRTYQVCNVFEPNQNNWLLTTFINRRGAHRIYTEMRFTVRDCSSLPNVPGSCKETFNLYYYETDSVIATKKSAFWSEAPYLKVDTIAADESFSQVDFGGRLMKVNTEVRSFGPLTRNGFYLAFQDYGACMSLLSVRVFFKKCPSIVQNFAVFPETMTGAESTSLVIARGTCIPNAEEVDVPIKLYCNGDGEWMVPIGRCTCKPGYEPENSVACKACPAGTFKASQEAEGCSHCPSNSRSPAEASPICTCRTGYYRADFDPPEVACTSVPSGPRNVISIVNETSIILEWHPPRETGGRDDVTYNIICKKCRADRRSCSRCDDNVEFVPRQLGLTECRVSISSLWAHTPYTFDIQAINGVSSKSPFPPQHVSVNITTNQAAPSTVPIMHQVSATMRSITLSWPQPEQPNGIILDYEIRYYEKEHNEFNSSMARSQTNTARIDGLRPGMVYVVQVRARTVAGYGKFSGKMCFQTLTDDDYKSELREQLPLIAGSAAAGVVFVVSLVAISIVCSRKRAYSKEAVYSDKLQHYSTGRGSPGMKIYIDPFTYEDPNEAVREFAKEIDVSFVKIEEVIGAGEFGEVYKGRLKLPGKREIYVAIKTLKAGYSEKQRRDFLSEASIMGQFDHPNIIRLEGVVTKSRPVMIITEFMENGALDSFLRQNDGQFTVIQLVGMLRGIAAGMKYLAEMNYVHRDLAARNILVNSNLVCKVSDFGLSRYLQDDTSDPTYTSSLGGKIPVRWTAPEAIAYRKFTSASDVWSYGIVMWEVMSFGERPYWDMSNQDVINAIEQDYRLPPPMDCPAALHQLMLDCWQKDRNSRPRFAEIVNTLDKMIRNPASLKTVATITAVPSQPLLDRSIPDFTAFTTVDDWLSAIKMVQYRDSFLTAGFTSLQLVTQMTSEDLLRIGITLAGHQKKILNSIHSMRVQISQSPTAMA
Sequence of EPHB2 (P29323 whole entry, looked up): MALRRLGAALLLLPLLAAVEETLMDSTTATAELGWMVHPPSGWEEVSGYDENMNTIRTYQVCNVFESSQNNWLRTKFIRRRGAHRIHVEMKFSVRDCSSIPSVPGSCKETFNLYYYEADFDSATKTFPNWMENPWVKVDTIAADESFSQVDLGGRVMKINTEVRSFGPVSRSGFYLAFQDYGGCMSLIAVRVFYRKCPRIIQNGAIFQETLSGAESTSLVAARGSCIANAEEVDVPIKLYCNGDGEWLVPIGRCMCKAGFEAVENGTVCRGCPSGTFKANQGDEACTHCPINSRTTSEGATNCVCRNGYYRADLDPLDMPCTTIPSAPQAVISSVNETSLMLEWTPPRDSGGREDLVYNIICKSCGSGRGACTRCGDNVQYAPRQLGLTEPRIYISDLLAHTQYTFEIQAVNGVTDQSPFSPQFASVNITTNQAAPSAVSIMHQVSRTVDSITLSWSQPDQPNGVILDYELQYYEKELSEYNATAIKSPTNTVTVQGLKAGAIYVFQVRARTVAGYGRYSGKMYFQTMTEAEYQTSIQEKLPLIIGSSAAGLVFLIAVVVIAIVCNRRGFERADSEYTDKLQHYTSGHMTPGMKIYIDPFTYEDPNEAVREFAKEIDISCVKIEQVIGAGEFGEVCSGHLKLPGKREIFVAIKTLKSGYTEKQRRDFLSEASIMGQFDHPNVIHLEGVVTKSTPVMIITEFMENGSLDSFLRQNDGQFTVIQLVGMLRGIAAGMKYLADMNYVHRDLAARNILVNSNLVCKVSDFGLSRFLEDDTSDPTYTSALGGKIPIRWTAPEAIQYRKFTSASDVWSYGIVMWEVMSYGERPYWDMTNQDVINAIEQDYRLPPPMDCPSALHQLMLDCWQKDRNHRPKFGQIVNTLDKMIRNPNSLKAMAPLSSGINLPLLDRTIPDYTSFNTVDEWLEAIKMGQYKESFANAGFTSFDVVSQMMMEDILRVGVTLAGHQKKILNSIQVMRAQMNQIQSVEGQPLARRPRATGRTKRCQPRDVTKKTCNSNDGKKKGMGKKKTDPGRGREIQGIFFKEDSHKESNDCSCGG
Sequence of Fes (P07332 whole entry, looked up): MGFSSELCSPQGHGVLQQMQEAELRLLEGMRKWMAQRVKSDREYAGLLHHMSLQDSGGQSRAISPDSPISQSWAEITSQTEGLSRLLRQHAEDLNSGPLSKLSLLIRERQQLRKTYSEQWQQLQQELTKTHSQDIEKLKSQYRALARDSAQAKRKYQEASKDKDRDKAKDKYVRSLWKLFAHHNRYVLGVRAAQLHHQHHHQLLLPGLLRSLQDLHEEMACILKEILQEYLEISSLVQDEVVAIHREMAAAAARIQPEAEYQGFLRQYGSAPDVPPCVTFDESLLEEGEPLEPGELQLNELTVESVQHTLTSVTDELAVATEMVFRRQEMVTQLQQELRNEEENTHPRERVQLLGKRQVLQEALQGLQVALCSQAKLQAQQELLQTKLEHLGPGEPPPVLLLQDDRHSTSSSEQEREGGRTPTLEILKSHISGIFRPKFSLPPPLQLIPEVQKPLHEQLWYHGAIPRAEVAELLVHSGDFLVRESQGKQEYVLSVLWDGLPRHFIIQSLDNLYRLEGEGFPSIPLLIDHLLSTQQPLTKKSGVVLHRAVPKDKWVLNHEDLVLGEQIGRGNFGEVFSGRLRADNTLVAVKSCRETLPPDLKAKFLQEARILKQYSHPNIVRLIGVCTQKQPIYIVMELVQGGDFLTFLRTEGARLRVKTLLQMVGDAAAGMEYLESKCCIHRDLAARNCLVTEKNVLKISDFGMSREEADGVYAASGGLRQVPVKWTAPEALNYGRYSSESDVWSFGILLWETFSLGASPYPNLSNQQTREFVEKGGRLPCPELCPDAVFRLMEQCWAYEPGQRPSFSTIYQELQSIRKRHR
Sequence of MERTK (Q12866 whole entry, looked up): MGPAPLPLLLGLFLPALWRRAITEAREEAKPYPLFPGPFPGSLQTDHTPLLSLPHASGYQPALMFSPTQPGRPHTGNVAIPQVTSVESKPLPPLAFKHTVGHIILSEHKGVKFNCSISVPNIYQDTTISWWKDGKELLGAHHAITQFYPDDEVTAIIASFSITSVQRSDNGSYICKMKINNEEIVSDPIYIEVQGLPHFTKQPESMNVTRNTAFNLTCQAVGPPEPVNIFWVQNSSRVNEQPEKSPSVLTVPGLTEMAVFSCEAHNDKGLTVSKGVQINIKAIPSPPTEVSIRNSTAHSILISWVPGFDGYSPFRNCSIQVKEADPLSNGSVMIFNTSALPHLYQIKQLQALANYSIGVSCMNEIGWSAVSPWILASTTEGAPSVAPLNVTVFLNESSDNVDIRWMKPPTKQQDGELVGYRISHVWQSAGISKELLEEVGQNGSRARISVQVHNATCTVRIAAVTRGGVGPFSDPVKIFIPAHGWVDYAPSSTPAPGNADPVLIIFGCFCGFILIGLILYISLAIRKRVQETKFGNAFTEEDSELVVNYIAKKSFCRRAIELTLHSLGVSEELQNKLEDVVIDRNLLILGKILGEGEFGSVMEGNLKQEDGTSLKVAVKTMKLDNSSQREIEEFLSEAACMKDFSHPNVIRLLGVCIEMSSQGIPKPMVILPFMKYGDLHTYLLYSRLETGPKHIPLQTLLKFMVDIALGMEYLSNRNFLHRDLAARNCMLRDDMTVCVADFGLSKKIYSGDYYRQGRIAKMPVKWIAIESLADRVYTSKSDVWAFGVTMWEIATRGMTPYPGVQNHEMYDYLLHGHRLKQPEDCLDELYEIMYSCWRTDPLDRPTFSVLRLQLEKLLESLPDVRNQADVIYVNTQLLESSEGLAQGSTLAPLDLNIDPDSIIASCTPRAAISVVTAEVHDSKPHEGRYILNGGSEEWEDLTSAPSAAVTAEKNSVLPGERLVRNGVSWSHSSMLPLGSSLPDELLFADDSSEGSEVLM
Sequence of Fyn (P06241 whole entry, looked up): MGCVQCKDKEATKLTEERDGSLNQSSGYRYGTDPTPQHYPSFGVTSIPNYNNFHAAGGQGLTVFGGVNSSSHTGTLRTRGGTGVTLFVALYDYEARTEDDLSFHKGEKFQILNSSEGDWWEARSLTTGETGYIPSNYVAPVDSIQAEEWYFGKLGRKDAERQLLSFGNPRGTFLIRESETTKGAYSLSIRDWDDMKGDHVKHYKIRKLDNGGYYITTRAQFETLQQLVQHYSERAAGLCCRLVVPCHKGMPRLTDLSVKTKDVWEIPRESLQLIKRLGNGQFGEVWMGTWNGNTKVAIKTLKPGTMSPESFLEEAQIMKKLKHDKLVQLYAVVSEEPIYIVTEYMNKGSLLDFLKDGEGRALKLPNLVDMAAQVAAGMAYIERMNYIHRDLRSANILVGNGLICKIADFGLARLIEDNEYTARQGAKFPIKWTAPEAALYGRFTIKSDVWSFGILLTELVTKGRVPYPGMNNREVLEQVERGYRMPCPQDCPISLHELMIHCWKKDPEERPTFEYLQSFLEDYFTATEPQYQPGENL

| Sequence | phosphorylation enrichment [1] | phosphorylation enrichment [2] | phosphorylation enrichment [3] | phosphorylation enrichment [4] | phosphorylation enrichment [5] | phosphorylation enrichment [6] | phosphorylation enrichment [7] | phosphorylation enrichment [8] | phosphorylation enrichment [9] | phosphorylation enrichment [10] | phosphorylation enrichment [11] | phosphorylation enrichment [12] | phosphorylation enrichment [13] | SH2 binding enrichment [14] | SH2 binding enrichment [15] | SH2 binding enrichment [16] |
| --- | --- | --- | --- | --- | --- | --- | --- | --- | --- | --- | --- | --- | --- | --- | --- | --- |
| RALLNYIASKF [GSTA3_Y74_I71L_YF] | 0.767 | 0.385 | 0.956 | 0.638 | 0.553 | 0.721 | 1.13 | 0.597 | 0.587 | 0.423 | 0.763 | 0.536 | 0.624 | 0.579 | 0.49 | 0.842 |
| RAMRRYLEWGE [ERBB3_Y680_R683W] | 0.314 | 0.553 | 0.561 | 0.4 | 0.834 | 0.657 | 0.514 | 0.466 | 0.834 | 0.427 | 0.403 | 0.677 | 0.398 | 0.571 | 0.437 | 0.632 |
| RDLHTYIMPAH [PNMT_Y256_R254H] | 1.04 | 1.19 | 1.24 | 0.878 | 0.564 | 0.748 | 1.61 | 0.601 | 0.631 | 0.982 | 0.754 | 0.957 | 0.725 | 0.504 | 1.27 | 0.609 |
| RDMNACIRPSP [MMAA_Y207_Y207C] | 1.03 | 0.773 | 1.29 | 0.565 | 0.571 | 0.798 | 1.12 | 0.62 | 0.375 | 0.934 | 1.06 | 0.581 | 1.07 | 0.444 | 0.58 | 0.969 |
| RELGEYALAEF [ALDH1A3_Y492_YF] | 0.784 | 0.77 | 1.06 | 0.849 | 0.699 | 0.661 | 1.28 | 0.478 | 0.665 | 0.725 | 0.857 | 0.821 | 0.697 | 0.411 | 0.93 | 0.684 |
| RENGPYFASFP [GDAP2_Y487_T489A_YF] | 0.891 | 0.568 | 0.924 | 0.893 | 0.627 | 0.432 | 1.17 | 0.565 | 1.27 | 0.889 | 0.443 | 1.27 | 0.534 | 0.707 | 0.534 | 0.812 |
| RENGPYFTSFP [GDAP2_Y487_YF] | 0.825 | 0.479 | 1.17 | 1.19 | 0.591 | 0.49 | 1.03 | 0.568 | 0.971 | 0.764 | 0.417 | 0.991 | 0.645 | 0.773 | 0.714 | 0.878 |
| RESYKYFPSSL [CXXC1_Y218] | 1.09 | 0.843 | 0.841 | 0.77 | 0.82 | 0.685 | 1.18 | 0.69 | 0.861 | 0.51 | 0.651 | 1.15 | 0.475 | 0.697 | 0.688 | 1.06 |
| RFGKVYKGHLF [ROR2_Y488] | 0.754 | 0.717 | 0.924 | 1.69 | 0.585 | 0.604 | 0.806 | 1.02 | 0.86 | 0.661 | 0.377 | 0.803 | 0.767 | 0.61 | 0.331 | 1.13 |
| RFLRGYHQDAY [HLA-A_Y137_R138H] | 0.895 | 0.762 | 0.772 | 0.984 | 0.923 | 0.538 | 0.963 | 0.795 | 0.935 | 0.572 | 0.84 | 1.28 | 1.03 | 0.497 | 0.632 | 0.857 |
| RGRSTYYWPRP [GAGE12J_Y9] | 0.869 | 0.68 | 0.546 | 0.859 | 0.607 | 0.762 | 0.869 | 0.98 | 0.494 | 0.742 | 0.656 | 0.715 | 0.707 | 0.55 | 0.501 | 0.8 |
| RGVTHYILQTF [SLC39A4_Y359] | 0.905 | 0.499 | 1.27 | 0.944 | 0.582 | 0.711 | 1.09 | 0.553 | 0.48 | 0.664 | 0.394 | 1.24 | 0.703 | 1.2 | 1.05 | 1.33 |
| RHPLDYLRQYP [NARS2_Y138_E137D] | 0.694 | 0.547 | 1.15 | 0.627 | 0.594 | 0.753 | 0.914 | 0.509 | 0.411 | 0.405 | 0.799 | 1.01 | 0.96 | 1.71 | 0.894 | 1.36 |
| RHPLEYLRQYP [NARS2_Y138] | 0.586 | 0.579 | 1.13 | 1.37 | 0.536 | 0.561 | 0.664 | 0.454 | 0.577 | 0.75 | 0.523 | 1.22 | 0.45 | 0.938 | 0.775 | 1.38 |
| RHPREYQDLLN [DES_Y388_L385P] | 0.572 | 0.698 | 0.545 | 0.487 | 0.327 | 0.463 | 0.668 | 0.41 | 0.464 | 0.377 | 0.537 | 0.785 | 0.569 | 0.906 | 1.29 | 1.06 |
| RHSGSYFVTSV [APC_Y2838_L2839F] | 0.565 | 0.598 | 0.845 | 0.741 | 0.444 | 0.591 | 0.895 | 0.676 | 0.785 | 0.574 | 0.517 | 0.89 | 0.654 | 0.499 | 0.547 | 0.787 |
